Like-named read-outs stand apart in the source and are kept apart here.
B1: 3H5 (antibody, human IgG1, V domains shown)
VH: QVQLKESGPGLVAPSQSLSITCTVSGFSLTSYGVSWVRQPPGKGLEWLGVIWGDGSTNYHSALISRLSISKDNSKSQVFLKLNSLQTDDTATYYCAKPRWDDYAMDYWGQGTSVTVSS
VL: DIQMTQTTSSLSASLGDRVTISCRASQDISNYLNWYQQKPDGTVKLLIYYTSRLHSGVPSRFSGSGSGTDYSLTISNLEQEDIATYFCQQGNTLWTFGGGTKLEIK
B2: 18E1 (antibody, human IgG1, V domains shown)
VH: QVQLQQSGAELVKPGASVRLSCKASGYTFTAHTIHWVKQRSGQGLEWIGWLYPGSGSIKYNEKFKDKATLTADKSSSTVYMELSRLTSEDSAVYFCARHTNWDFDYWGQGTTLTVSS
VL: NIVLTQSPASLAVSLGQRATISCKASQSVDYGGASYMNWYQQKPGQPPKLLIYAASNLESGIPARFSGSGSGTDLTLNIHPVEEEDAAMYYCQQSNEEPWTFGGGTKLEIK
B3: 12D12 (antibody, human IgG1, V domains shown)
VH: QVQLQQPGAELVKPGASVRMSCKASGYTFTSYWVHWVKQRPGQGLEWIGVIDPSDSYTSYNQNFKGKATLTVDTSSKTAYIHLSSLTSEDSAVYFCARGERYDGDYFAMDYWGQGTSVTVSS
VL: DIVMTQSPASLSVSVGETVTITCRASENIYSNLAWYQQKQGKSPQLLVYAATNLADGVPSRFSGSRSGTQYSLKINSLQSEDFGTYYCQHFWNTPRTFGGGTKLEIK

How the values were obtained:
[1] = target: T1, human ILT2 on primary NK cells (human, UniProt Q8NHL6 24-650); experiment: flow cytometry, primary NK cells
T1 construct: whole, on cells

[2] = target: T2, human ILT2 (LILRB1) expressed at the surface of transfected cells (human, UniProt Q8NHL6 24-650); experiment: flow cytometry, CHO-ILT2 cells
T2 construct: also called CHO-ILT2; CHO ILT2 cell line
Method: Cells were incubated with various concentrations of unlabeled anti-ILT2 antibodies from 30 μg/ml to 5×10-⁴ μg/ml, for 30 minutes at 4° C. After washes with staining buffer, cells were incubated for 30 min at 4° C. with Goat anti-human H+L AF488 secondary antibody (Jackson Immunoresearch #109-546-088) or Goat anti-mouse H+L AF488 secondary antibody for commercially available antibodies (Jackson Immuoresearch #115-545-146). Fluorescence was measured on an Accury C6 flow cytometer equipped with an HTFC plate loader.

[3] = target: T2, human ILT2 (LILRB1) expressed at the …; experiment: flow cytometry titration on HEK293T cells transfected with wild-type ILT2
[4] = target: T3, ILT-2_6xHis recombinant protein (human, UniProt Q8NHL6 24-458); experiment: SPR, antibody captured on Protein-A, soluble ILT2 analyte; two state fit
T3 construct: monomers purified by SEC; also called recombinant 6xHIS tagged ILT2; recombinant human ILT2 proteins
Method: Measurements were performed on a Biacore T200 apparatus (Biacore GE Healthcare) at 25° C. In all Biacore experiments HBS-EP+(Biacore GE Healthcare) and NaOH 10 mM served as running buffer and regeneration buffer respectively. Sensorgrams were analyzed with Biacore T100 Evaluation software. Protein-A was purchased from (GE Healthcare). Human ILT2 recombinant proteins were cloned, produced and purified at Innate Pharma. Protein-A proteins were immobilized covalently to carboxyl groups in the dextran layer on a Sensor Chip CM5. The chip surface was activated with EDC/NHS (N-ethyl-N′-(3-dimethylaminopropyl) carbodiimidehydrochloride and N-hydroxysuccinimide (Biacore GE Healthcare)). Protein-A was diluted to 10 μg/ml in coupling buffer (10 mM acetate, pH 5.6) and injected until the appropriate immobilization level was reached (i.e. 600 RU). Deactivation of the remaining activated groups was performed using 100 mM ethanolamine pH 8 (Biacore GE Healthcare). […] For blank subtraction, cycles were performed again replacing ILT2 proteins with running buffer. The monovalent affinity analysis was conducted following a regular Capture-Kinetic protocol as recommended by the manufacturer (Biacore GE Healthcare kinetic wizard). […]

[5] = target: T4, anchored ILT2 D2-D3-D4 domain protein (human, UniProt Q8NHL6 122-650); experiment: flow cytometry, CHO cells with anchored ILT2 domain proteins
T4 construct: on CHO cells; the entry includes leader remnant, V5 tag, and the ILT2 transmembrane and cytoplasmic parts

[6] = target: T5, anchored ILT2 D3-D4 domain protein (human, UniProt Q8NHL6 223-650); experiment: as above
T5 construct: on CHO cells; the entry includes leader remnant, V5 tag, and the ILT2 transmembrane and cytoplasmic parts

[7] = target: T6, anchored ILT2 D2 domain protein (human); experiment: as above
T6 construct: on CHO cells; the entry includes leader remnant, V5 tag and CD24 GPI anchor signal

[8] = target: T7, anchored ILT2 D2-D3 domain protein (human, UniProt Q8NHL6 122-321); experiment: as above
T7 construct: on CHO cells; the entry includes leader remnant, V5 tag and CD24 GPI anchor signal

[9] = target: T8, anchored ILT2 D3 domain protein (human); experiment: flow cytometry on CHO cells expressing the anchored ILT2 D3 domain protein (SEQ ID NO: 48); stacked histograms, axis without numbers, no control histogram
T8 construct: on CHO cells; the entry includes leader remnant, V5 tag and CD24 GPI anchor signal

ILT2 mutant 1 = target: T9, ILT2 mutant 1 (human, UniProt Q8NHL6 24-650); experiment: flow cytometry titration on HEK293T cells transfected with ILT2 mutant 1
T9 construct: transfected in HEK293T cells; also called M1

[10] = target: T10, anchored ILT2 D4 domain protein (human, UniProt Q8NHL6 322-650); experiment: flow cytometry on CHO cells expressing the anchored ILT2 D4 domain protein (SEQ ID NO: 49); stacked histograms, axis without numbers
T10 construct: on CHO cells; the entry includes leader remnant, V5 tag, and the ILT2 transmembrane and cytoplasmic parts

[11] = target: T11, human ILT8 (LILRA6) on CHO cells (human, UniProt Q6PI73 24-477); experiment: flow cytometry, CHO transfectants
T11 construct: also called CHO ILT8 cell line

[12] = target: T12, human ILT4 (LILRB2) on CHO cells (human, UniProt Q8N423 23-597); experiment: flow cytometry, CHO transfectants
T12 construct: also called CHO ILT4 cell line

[13] = target: T13, human ILT1 (LILRA2) on CHO cells (human, UniProt Q8N149 24-475); experiment: flow cytometry, CHO transfectants
T13 construct: also called CHO ILT1 cell line

[14] = target: T14, human ILT5 (LILRB3) on CHO cells (human, UniProt O75022 24-626); experiment: flow cytometry, CHO transfectants
T14 construct: also called CHO ILT5 cell line

[15] = target: T15, human ILT7 (LILRA4) on CHO cells (human, UniProt P59901 28-494); experiment: flow cytometry, CHO transfectants
T15 construct: also called CHO ILT7 cell line

[16] = target: T16, human ILT3 (LILRB4) on CHO cells (human, UniProt Q8NHJ6 24-443); experiment: flow cytometry, CHO transfectants
T16 construct: also called CHO ILT3 cell line

[17] = target: T17, human ILT6 (LILRA3) on CHO cells (human, UniProt Q8N6C8 24-434); experiment: flow cytometry, CHO transfectants
T17 construct: also called CHO ILT6 cell line; human ILT-6 polypeptide

ILT2 mutant 2 = target: T18, ILT2 mutant 2 (human, UniProt Q8NHL6 24-650); experiment: flow cytometry titration on HEK293T cells transfected with ILT2 mutant 2
T18 construct: transfected in HEK293T cells; also called M2

[18] = target: T2, human ILT2 (LILRB1) expressed at the …; experiment: flow cytometry titration on HEK293T cells transfected with wild-type ILT2; remark: listed apart in the source
[19] = target: T1, human ILT2 on primary NK cells; experiment: cell-based or functional assay
ILT2 mutant 4-2 = target: T19, ILT2 mutant 4-2 (human, UniProt Q8NHL6 24-650); experiment: flow cytometry titration on HEK293T cells transfected with ILT2 mutant 4-2
T19 construct: transfected in HEK293T cells

ILT2 mutant 4-1 = target: T20, ILT2 mutant 4-1 (human, UniProt Q8NHL6 24-650); experiment: flow cytometry titration on HEK293T cells transfected with ILT2 mutant 4-1
T20 construct: transfected in HEK293T cells

[20] = target: T21, anchored ILT2 D1-D2-D3 domain protein (human, UniProt Q8NHL6 24-321); experiment: flow cytometry, CHO cells with anchored ILT2 domain proteins
T21 construct: on CHO cells; the entry includes leader remnant, V5 tag and CD24 GPI anchor signal

[21] = target: T22, anchored ILT2 D1-D2 domain protein (human, UniProt Q8NHL6 24-222); experiment: as above
T22 construct: on CHO cells; the entry includes leader remnant, V5 tag and CD24 GPI anchor signal

Mutant D4-4 = target: T23, Mutant D4-4; experiment: flow cytometry titration on HEK293T cells transfected with ILT2 mutant 4-4
T23 construct: also called ILT2 mutant 4-4; mutant 4-4

ILT2 mutant 4-5 = target: T24, ILT2 mutant 4-5 (human, UniProt Q8NHL6 24-650); experiment: flow cytometry titration on HEK293T cells transfected with ILT2 mutant 4-5
T24 construct: transfected in HEK293T cells

[22] = target: T25, anchored ILT2 D1 domain protein (human); experiment: flow cytometry on CHO cells expressing the anchored ILT2 D1 domain protein (SEQ ID NO: 46); stacked histograms, axis without numbers
T25 construct: on CHO cells; the entry includes leader remnant, V5 tag and CD24 GPI anchor signal

[23] = target: T3, ILT-2_6xHis recombinant protein; experiment: SPR, antibody captured on Protein-A, soluble ILT2 analyte
Method: Measurements were performed on a Biacore T200 apparatus (Biacore GE Healthcare) at 25° C. In all Biacore experiments HBS-EP+(Biacore GE Healthcare) and NaOH 10 mM served as running buffer and regeneration buffer respectively. Sensorgrams were analyzed with Biacore T100 Evaluation software. Protein-A was purchased from (GE Healthcare). Human ILT2 recombinant proteins were cloned, produced and purified at Innate Pharma. Protein-A proteins were immobilized covalently to carboxyl groups in the dextran layer on a Sensor Chip CM5. The chip surface was activated with EDC/NHS (N-ethyl-N′-(3-dimethylaminopropyl) carbodiimidehydrochloride and N-hydroxysuccinimide (Biacore GE Healthcare)). Protein-A was diluted to 10 μg/ml in coupling buffer (10 mM acetate, pH 5.6) and injected until the appropriate immobilization level was reached (i.e. 600 RU). Deactivation of the remaining activated groups was performed using 100 mM ethanolamine pH 8 (Biacore GE Healthcare). […] For blank subtraction, cycles were performed again replacing ILT2 proteins with running buffer. The monovalent affinity analysis was conducted following a regular Capture-Kinetic protocol as recommended by the manufacturer (Biacore GE Healthcare kinetic wizard). Seven serial dilutions of human ILT2 proteins, ranging from 1.95 nM to 250 nM were sequentially injected over the captured antibodies and allowed to dissociate for 10 min before regeneration. The entire sensorgram sets were fitted using the 1:1 kinetic binding model or two state reaction model, as a function of the profile of the curves.

Mutant D4-1B = target: T26, Mutant D4-1B; experiment: flow cytometry titration on HEK293T cells transfected with ILT2 mutant 4-1b
T26 construct: read as S304F; also called ILT2 mutant 4-1b; mutant 4-1b

[24] = target: T27, biotinylated BirA-tagged ILT2 protein tetramerised on APC-conjugated streptavidin (human, UniProt Q8NHL6 24-458, limits assumed, 1 biotin molecule per ILT2 protein (BirA tag)); experiment: flow cytometry blocking assay: ILT2-streptavidin-APC complexes pre-incubated with antibody, then added to WIL2-NS cells expressing HLA-A2; blocked ligand HLA-A2
T27 construct: ratio 1 streptavidin per 4 ILT2 protein; streptavidin-APC not written as a chain; also called ILT2-SA tetramers; recombinant biotinylated ILT2

[25] = target: T27, biotinylated BirA-tagged ILT2 protein …; experiment: flow cytometry blocking assay: ILT2-streptavidin-APC complexes pre-incubated with antibody, then added to K562 cells expressing HLA-G; blocked ligand HLA-G

T12 sequence (Q8N423 other isoform, or with tags, fused parts or gaps): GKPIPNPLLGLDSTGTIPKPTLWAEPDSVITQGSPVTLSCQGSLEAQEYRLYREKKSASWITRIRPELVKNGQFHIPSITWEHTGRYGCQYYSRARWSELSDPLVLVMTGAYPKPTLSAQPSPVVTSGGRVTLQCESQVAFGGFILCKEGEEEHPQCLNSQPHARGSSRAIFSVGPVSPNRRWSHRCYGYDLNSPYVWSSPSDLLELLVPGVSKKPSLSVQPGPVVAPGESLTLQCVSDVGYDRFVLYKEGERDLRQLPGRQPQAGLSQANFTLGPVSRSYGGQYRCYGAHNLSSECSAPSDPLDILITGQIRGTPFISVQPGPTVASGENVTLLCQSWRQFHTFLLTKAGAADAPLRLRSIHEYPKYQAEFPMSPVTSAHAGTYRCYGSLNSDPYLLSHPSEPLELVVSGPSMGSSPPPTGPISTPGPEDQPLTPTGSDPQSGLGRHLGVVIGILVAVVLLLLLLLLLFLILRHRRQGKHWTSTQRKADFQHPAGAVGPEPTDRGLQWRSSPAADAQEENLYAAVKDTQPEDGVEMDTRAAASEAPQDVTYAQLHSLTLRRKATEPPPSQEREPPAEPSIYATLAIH
T15 sequence (P59901 other isoform, or with tags, fused parts or gaps): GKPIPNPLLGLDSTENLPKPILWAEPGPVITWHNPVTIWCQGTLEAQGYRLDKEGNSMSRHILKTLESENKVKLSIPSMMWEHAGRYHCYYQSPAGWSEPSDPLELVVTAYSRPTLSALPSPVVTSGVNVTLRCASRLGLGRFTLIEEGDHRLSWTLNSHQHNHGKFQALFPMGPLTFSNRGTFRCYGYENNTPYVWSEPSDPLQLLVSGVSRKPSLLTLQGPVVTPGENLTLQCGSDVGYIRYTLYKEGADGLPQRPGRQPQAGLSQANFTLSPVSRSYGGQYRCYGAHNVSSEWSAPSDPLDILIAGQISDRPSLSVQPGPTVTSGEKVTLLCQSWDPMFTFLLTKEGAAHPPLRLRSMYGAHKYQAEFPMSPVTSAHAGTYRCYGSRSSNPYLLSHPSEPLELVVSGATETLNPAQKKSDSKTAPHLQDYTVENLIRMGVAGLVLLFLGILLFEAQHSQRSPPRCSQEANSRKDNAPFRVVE
T14 sequence (O75022 other isoform, or with tags, fused parts or gaps): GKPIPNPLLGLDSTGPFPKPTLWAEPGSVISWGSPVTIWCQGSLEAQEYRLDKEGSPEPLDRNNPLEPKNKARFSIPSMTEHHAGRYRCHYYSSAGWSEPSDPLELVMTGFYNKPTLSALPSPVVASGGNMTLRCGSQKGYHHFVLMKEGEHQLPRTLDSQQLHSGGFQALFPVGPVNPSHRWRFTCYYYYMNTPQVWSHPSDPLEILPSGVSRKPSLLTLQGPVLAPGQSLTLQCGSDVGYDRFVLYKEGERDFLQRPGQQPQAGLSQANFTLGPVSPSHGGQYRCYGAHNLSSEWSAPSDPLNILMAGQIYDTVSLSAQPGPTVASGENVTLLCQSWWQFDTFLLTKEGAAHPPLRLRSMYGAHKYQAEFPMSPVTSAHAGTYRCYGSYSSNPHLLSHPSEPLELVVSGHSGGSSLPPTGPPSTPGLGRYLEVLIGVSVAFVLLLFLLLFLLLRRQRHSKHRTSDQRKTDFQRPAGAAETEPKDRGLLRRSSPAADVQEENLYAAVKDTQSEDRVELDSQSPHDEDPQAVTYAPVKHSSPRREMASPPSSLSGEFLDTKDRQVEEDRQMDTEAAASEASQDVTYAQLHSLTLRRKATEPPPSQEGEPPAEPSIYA
T16 sequence (Q8NHJ6 other isoform, or with tags, fused parts or gaps): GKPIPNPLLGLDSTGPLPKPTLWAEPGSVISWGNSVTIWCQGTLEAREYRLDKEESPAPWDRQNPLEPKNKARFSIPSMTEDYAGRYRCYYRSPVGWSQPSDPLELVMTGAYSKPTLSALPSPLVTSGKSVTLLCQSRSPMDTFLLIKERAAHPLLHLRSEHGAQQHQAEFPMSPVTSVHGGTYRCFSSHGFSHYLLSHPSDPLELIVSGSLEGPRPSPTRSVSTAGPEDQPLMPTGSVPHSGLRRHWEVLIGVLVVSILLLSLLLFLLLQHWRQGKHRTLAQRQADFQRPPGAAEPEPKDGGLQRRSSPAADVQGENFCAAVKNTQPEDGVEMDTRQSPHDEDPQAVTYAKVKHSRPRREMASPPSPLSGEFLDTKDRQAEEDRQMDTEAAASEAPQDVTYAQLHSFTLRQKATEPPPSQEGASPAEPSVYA
T11 sequence (Q6PI73 other isoform, or with tags, fused parts or gaps): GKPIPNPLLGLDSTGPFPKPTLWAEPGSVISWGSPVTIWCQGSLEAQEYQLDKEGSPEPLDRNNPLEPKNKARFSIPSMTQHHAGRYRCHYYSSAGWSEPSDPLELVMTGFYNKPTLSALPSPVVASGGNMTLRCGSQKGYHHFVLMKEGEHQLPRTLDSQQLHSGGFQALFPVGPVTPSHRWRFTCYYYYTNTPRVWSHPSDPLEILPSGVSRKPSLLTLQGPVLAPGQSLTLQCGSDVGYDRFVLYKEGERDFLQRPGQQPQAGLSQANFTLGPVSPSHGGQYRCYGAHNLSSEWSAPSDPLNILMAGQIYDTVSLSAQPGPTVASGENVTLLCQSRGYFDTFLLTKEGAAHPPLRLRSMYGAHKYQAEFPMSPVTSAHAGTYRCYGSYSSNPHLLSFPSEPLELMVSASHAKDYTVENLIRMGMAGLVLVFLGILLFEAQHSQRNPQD
T8 sequence (chain, as listed by the source limits assumed): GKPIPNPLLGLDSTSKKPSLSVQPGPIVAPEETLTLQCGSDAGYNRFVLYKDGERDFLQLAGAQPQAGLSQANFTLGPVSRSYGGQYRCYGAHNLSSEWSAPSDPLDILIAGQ
T6 sequence (chain, as listed by the source limits assumed): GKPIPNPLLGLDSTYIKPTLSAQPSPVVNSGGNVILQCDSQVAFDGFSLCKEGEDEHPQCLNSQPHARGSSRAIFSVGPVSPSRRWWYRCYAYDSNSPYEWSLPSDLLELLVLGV
T3 sequence (Q8NHL6 other isoform, or with tags, fused parts or gaps limits assumed): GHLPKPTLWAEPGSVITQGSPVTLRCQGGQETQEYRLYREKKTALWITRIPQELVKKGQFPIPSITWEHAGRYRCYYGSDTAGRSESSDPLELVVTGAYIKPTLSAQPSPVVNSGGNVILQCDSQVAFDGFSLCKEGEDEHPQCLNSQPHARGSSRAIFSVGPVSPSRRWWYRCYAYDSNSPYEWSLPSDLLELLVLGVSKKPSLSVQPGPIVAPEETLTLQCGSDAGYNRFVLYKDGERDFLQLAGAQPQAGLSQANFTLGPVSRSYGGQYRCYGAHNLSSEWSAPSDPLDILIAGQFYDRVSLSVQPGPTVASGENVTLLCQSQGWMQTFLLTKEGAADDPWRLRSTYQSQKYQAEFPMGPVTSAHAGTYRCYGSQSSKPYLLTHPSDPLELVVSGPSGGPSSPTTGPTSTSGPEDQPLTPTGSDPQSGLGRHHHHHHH
T13 sequence (Q8N149 other isoform, or with tags, fused parts or gaps): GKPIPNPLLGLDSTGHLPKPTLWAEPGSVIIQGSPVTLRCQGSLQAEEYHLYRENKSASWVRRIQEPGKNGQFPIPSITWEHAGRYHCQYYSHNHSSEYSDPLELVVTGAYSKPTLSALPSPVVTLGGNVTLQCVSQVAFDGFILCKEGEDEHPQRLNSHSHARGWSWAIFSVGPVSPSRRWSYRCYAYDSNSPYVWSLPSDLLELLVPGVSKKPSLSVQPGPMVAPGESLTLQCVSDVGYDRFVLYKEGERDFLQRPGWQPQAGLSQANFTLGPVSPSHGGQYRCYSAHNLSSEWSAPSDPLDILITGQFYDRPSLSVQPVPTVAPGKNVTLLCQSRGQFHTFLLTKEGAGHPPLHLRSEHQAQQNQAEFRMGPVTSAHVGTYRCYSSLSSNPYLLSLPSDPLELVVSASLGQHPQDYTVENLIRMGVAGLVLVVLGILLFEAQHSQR
T7 sequence (Q8NHL6 other isoform, or with tags, fused parts or gaps limits assumed): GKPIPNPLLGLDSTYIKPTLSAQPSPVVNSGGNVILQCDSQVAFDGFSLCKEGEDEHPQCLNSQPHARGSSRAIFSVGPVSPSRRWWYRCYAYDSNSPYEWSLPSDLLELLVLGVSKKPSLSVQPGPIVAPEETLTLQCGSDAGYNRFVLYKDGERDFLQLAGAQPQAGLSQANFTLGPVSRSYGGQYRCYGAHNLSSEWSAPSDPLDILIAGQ
T1 sequence (Q8NHL6 24-650): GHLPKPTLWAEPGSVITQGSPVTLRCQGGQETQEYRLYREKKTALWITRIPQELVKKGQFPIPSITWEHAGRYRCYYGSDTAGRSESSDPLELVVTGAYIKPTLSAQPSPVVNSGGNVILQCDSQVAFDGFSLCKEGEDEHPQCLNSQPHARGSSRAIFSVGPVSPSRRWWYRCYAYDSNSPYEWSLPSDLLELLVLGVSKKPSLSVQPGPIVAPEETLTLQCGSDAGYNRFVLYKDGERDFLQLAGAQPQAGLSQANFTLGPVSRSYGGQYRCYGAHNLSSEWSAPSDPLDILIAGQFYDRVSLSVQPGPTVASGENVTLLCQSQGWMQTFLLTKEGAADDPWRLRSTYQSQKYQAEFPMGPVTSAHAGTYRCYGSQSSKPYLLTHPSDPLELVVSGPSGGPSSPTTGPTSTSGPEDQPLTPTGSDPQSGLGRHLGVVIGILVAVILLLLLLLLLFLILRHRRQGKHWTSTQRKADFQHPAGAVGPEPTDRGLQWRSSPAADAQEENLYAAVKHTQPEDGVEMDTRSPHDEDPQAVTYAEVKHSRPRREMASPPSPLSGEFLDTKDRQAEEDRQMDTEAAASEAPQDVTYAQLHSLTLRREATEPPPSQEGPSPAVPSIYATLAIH
T2 sequence (Q8NHL6 24-650): as above
T10 sequence (Q8NHL6 other isoform, or with tags, fused parts or gaps limits assumed): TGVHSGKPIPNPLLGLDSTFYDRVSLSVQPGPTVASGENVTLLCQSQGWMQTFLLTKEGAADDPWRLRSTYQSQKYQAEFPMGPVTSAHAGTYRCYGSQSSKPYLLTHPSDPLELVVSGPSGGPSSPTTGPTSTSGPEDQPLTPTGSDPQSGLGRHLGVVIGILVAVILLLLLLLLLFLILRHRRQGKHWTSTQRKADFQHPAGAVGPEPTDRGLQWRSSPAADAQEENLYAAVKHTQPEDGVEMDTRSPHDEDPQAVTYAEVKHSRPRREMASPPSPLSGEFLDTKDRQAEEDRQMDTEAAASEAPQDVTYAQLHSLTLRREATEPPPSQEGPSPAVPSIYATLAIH

Binder | EC50 [1] [µg/mL] | EC50 [2] [µg/mL] | EC50 (read off the curve) [3] [µg/mL] | binding result [5] | binding result [6] | binding result [7] | binding result [8] | binding result [9] | binding result [10] | binding result [11] | binding result [12] | binding result [13] | binding result [14] | binding result [15] | binding result [16] | binding result [17] | binding result (ILT2 mutant 2) | CD137 expression on ILT2-positive primary NK cells [19] [fold] | CD137 expression on NK cells of urothelial cancer patients with HLA-A2-expressing B cells [19] [fold] | Kd [23] [nM] | other results
B1 | 0.48 | 0.35 | ~0.9 | no binding | no binding | no binding | no binding | no binding | no binding | no binding | no binding | no binding | no binding | no binding | no binding | no binding | no binding (tested: about 20 µg/ml) | – | – | – | Kd [4]: 4.4 nM; binding result (ILT2 mutant 1): binds
B2 | 0.11 | 0.12 | – | – | – | no binding | no binding | no binding | – | no binding | no binding | no binding | no binding | no binding | no binding | no binding | – | 2 | > 2 | 0.2 | EC50 (read off the curve) [18]: ~0.3 µg/mL; binding result (ILT2 mutant 4-2): no binding (tested: about 20 µg/ml); binding result (ILT2 mutant 4-1): no binding (tested: about 20 µg/ml); binding result [20]: no binding; binding result [21]: no binding; binding result (Mutant D4-4): binds; binding result (ILT2 mutant 4-5): binds; binding result [22]: no binding; koff [23]: 0.00011 s⁻¹; binding result (Mutant D4-1B): binds
B3 | 0.09 | 0.36 | ~0.5 | no binding | no binding | no binding | no binding | no binding | no binding | no binding | no binding | no binding | no binding | no binding | no binding | no binding | no binding (tested: about 20 µg/ml) | 2 | > 2 | 1 | IC50 (read off the curve) [24]: ~0.1 µg/mL; IC50 (read off the curve) [25]: ~0.2 µg/mL; EC50 (read off the curve) (ILT2 mutant 1): ~0.4 µg/mL; koff [23]: 0.00042 s⁻¹; kon [23]: 430000 M⁻¹ s⁻¹
